Laboratory results published in the supplement of paper PMC7877785.
± gives the uncertainty stated by the source.

Experiment: self-splicing fitness, log relative to wild type (ln ratio); higher = more splicing; Tetrahymena group I intron in knt gene, E. coli kanamycin selection, DiMSum; sequences stand for … in CUCUCU…GGAGGGAAAAGUUAUCAGGCAUGCACCUGGUAGCUAGUCUUUAAACCAAUAGAUUGCAUCGGUUUAAAAGGCAAGACCGUCAAAUUGCGGGAAAGGGGUCAACAGCCGUUCAGUACCAAGUCUCAGGGGAAACUUUGAGAUGGCCUUGCAAAGGGUAUGGUAAUAAGCUGACGGACAUGGUCCUAACCACGCAGCCAAGUCCUAAGUCAACAGAUCUUCUGUUGAUAUGGAUGCAGUUCACAGACUAAAUGUCGGUCGGGGAAGAUGUAUUCUUCUCAUAAGAUAUAGUCGGACCUCUCCUUAAUGGGAGCUAGCGGAUGAAGUGAUGCAACACUGGAGCCGCUGGGAACUAAUUUGUAUGCGAAAGUAUAUUGAUUAGUUUUGGAGUACUCGUGGUCG
Summary of the method: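 Library with all eight P1ex-region intron nucleotides randomised, intron inside the knt kanamycin-resistance gene on pET-22b(+), in E. coli BL21(DE3). Cells grew overnight at 37°C or 30°C on LB agar with or without 25 μg/mL kanamycin (plus 100 μg/mL carbenicillin, 50 μM IPTG, 0.2% rhamnose), in six replicate transformations. Pooled colonies were amplicon-sequenced on Illumina HiSeq 2500. DiMSum fitness is the error-weighted combination of wild-type-normalised replicate fold changes, kanamycin versus none.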

In the case of UUGGAGCAAUAUUACGCCUA, the “self-splicing fitness (ln)” value (30 °C) is reported as -1.39 ± 0.2 and the “self-splicing fitness (ln)” value (37 °C) is reported as -0.365 ± 0.19.
With AUAAAGCAAUAUUACGGAAU the “self-splicing fitness (ln)” value (30 °C) was -1.16 ± 0.077 and the “self-splicing fitness (ln)” value (37 °C) was -0.475 ± 0.1.
For AGACAGCAAUAUUACGAGCC, the “self-splicing fitness (ln)” value (30 °C) was -0.273 ± 0.14 and the “self-splicing fitness (ln)” value (37 °C) was -0.798 ± 0.21.
In the case of CCCCAGCAAUAUUACGUAUC, the “self-splicing fitness (ln)” value (30 °C) is reported as -3.88 ± 0.21 and the “self-splicing fitness (ln)” value (37 °C) is reported as -3.84 ± 0.21.
With AUAUAGCAAUAUUACGACCA the “self-splicing fitness (ln)” value (30 °C) was -1.05 ± 0.32 and the “self-splicing fitness (ln)” value (37 °C) was 0.391 ± 0.26.
In the case of UAUCAGCAAUAUUACGCAGC, the “self-splicing fitness (ln)” value (30 °C) is reported as -2.17 ± 0.19 and the “self-splicing fitness (ln)” value (37 °C) is reported as -1.53 ± 0.18.
In the case of UACCAGCAAUAUUACGACCC, the “self-splicing fitness (ln)” value (30 °C) is reported as -2.84 ± 0.5 and the “self-splicing fitness (ln)” value (37 °C) is reported as -1.02 ± 0.44.
In the case of CCAGAGCAAUAUUACGGCAA, the “self-splicing fitness (ln)” value (30 °C) is reported as -2.25 ± 0.38 and the “self-splicing fitness (ln)” value (37 °C) is reported as -2.28 ± 0.3.
With UCCGAGCAAUAUUACGGAAC the “self-splicing fitness (ln)” value (30 °C) was -2.97 ± 0.33.
In the case of CGAAAGCAAUAUUACGUGAA, the “self-splicing fitness (ln)” value (30 °C) is reported as -2.52 ± 0.092 and the “self-splicing fitness (ln)” value (37 °C) is reported as -1.17 ± 0.12.
With AGAAAGCAAUAUUACGACGG the “self-splicing fitness (ln)” value (30 °C) was -2.82 ± 0.24 and the “self-splicing fitness (ln)” value (37 °C) was -0.965 ± 0.29.
In the case of UUCCAGCAAUAUUACGUAGG, the “self-splicing fitness (ln)” value (30 °C) is reported as -4.29 ± 0.42 and the “self-splicing fitness (ln)” value (37 °C) is reported as -2.44 ± 0.23.
For CGCAAGCAAUAUUACGCCGA, the “self-splicing fitness (ln)” value (30 °C) was -2.85 ± 0.26 and the “self-splicing fitness (ln)” value (37 °C) was -2 ± 0.18.
In the case of CGCCAGCAAUAUUACGUAGA, the “self-splicing fitness (ln)” value (30 °C) is reported as -1.25 ± 0.086 and the “self-splicing fitness (ln)” value (37 °C) is reported as -1.18 ± 0.13.
For UCCCAGCAAUAUUACGCACA, the “self-splicing fitness (ln)” value (30 °C) was -1 ± 0.071 and the “self-splicing fitness (ln)” value (37 °C) was -0.318 ± 0.095.
In the case of CCCGAGCAAUAUUACGCCAG, the “self-splicing fitness (ln)” value (30 °C) is reported as -2.69 ± 0.38.
For CGGAAGCAAUAUUACGAGGG, the “self-splicing fitness (ln)” value (30 °C) was -0.374 ± 0.41.
With AUAGAGCAAUAUUACGCCCA the “self-splicing fitness (ln)” value (30 °C) was -1.09 ± 0.29 and the “self-splicing fitness (ln)” value (37 °C) was -1.03 ± 0.48.
With AGUUAGCAAUAUUACGCACC the “self-splicing fitness (ln)” value (30 °C) was -1.35 ± 0.15 and the “self-splicing fitness (ln)” value (37 °C) was -0.000166 ± 0.19.
For GGACAGCAAUAUUACGUUCU, the “self-splicing fitness (ln)” value (30 °C) was -2.91 ± 0.12 and the “self-splicing fitness (ln)” value (37 °C) was -2.45 ± 0.18.
In the case of AAUGAGCAAUAUUACGGGAG, the “self-splicing fitness (ln)” value (30 °C) is reported as -2.87 ± 0.23 and the “self-splicing fitness (ln)” value (37 °C) is reported as -3.53 ± 0.42.
In the case of UCAAAGCAAUAUUACGAGAC, the “self-splicing fitness (ln)” value (30 °C) is reported as -3.15 ± 0.17 and the “self-splicing fitness (ln)” value (37 °C) is reported as -2.76 ± 0.22.
In the case of GUCCAGCAAUAUUACGAGAU, the “self-splicing fitness (ln)” value (30 °C) is reported as -2.92 ± 0.13 and the “self-splicing fitness (ln)” value (37 °C) is reported as -1.32 ± 0.11.
For GAGCAGCAAUAUUACGAUCG, the “self-splicing fitness (ln)” value (30 °C) was -2.76 ± 0.17 and the “self-splicing fitness (ln)” value (37 °C) was -2.48 ± 0.26.
In the case of AAACAGCAAUAUUACGGUCU, the “self-splicing fitness (ln)” value (30 °C) is reported as -0.15 ± 0.059 and the “self-splicing fitness (ln)” value (37 °C) is reported as -0.161 ± 0.064.
With UCCGAGCAAUAUUACGCCCA the “self-splicing fitness (ln)” value (30 °C) was -4.21 ± 0.36 and the “self-splicing fitness (ln)” value (37 °C) was -2.83 ± 0.35.
With GACAAGCAAUAUUACGAAAG the “self-splicing fitness (ln)” value (30 °C) was -3.82 ± 0.23 and the “self-splicing fitness (ln)” value (37 °C) was -3.18 ± 0.24.
In the case of GGGCAGCAAUAUUACGCCUA, the “self-splicing fitness (ln)” value (30 °C) is reported as -0.197 ± 0.12 and the “self-splicing fitness (ln)” value (37 °C) is reported as 0.428 ± 0.14.
In the case of CCUUAGCAAUAUUACGCGCA, the “self-splicing fitness (ln)” value (30 °C) is reported as -2.45 ± 0.4 and the “self-splicing fitness (ln)” value (37 °C) is reported as -1.89 ± 0.34.
In the case of GCAUAGCAAUAUUACGUAAU, the “self-splicing fitness (ln)” value (30 °C) is reported as -2.58 ± 0.1 and the “self-splicing fitness (ln)” value (37 °C) is reported as -0.793 ± 0.096.
For UGCAAGCAAUAUUACGCCCG, the “self-splicing fitness (ln)” value (30 °C) was -0.288 ± 0.18 and the “self-splicing fitness (ln)” value (37 °C) was 0.109 ± 0.2.
For UACAAGCAAUAUUACGCUCC, the “self-splicing fitness (ln)” value (30 °C) was -2.38 ± 0.17 and the “self-splicing fitness (ln)” value (37 °C) was -0.668 ± 0.17.
In the case of UAUUAGCAAUAUUACGCGCU, the “self-splicing fitness (ln)” value (30 °C) is reported as -0.731 ± 0.15 and the “self-splicing fitness (ln)” value (37 °C) is reported as -0.558 ± 0.18.
With CUUUAGCAAUAUUACGUAUA the “self-splicing fitness (ln)” value (30 °C) was -3.57 ± 0.27 and the “self-splicing fitness (ln)” value (37 °C) was -2.38 ± 0.49.
For UUAGAGCAAUAUUACGACCU, the “self-splicing fitness (ln)” value (30 °C) was -3.64 ± 0.41 and the “self-splicing fitness (ln)” value (37 °C) was -1.49 ± 0.43.
For CCUCAGCAAUAUUACGCUUA, the “self-splicing fitness (ln)” value (30 °C) was -4.1 ± 0.3 and the “self-splicing fitness (ln)” value (37 °C) was -2.11 ± 0.16.
In the case of AUCCAGCAAUAUUACGUCAG, the “self-splicing fitness (ln)” value (30 °C) is reported as -2.99 ± 0.11 and the “self-splicing fitness (ln)” value (37 °C) is reported as -2.15 ± 0.12.
In the case of GACUAGCAAUAUUACGUCCU, the “self-splicing fitness (ln)” value (30 °C) is reported as -1.15 ± 0.2 and the “self-splicing fitness (ln)” value (37 °C) is reported as 0.446 ± 0.17.
With CCCAAGCAAUAUUACGGGAU the “self-splicing fitness (ln)” value (30 °C) was -3.41 ± 0.096 and the “self-splicing fitness (ln)” value (37 °C) was -2.47 ± 0.12.
With UGGAAGCAAUAUUACGAUUA the “self-splicing fitness (ln)” value (30 °C) was -1.1 ± 0.11 and the “self-splicing fitness (ln)” value (37 °C) was 0.012 ± 0.12.
For AAGCAGCAAUAUUACGAUGA, the “self-splicing fitness (ln)” value (30 °C) was -0.809 ± 0.078 and the “self-splicing fitness (ln)” value (37 °C) was -0.909 ± 0.083.
With UCGCAGCAAUAUUACGGGAG the “self-splicing fitness (ln)” value (30 °C) was -3.59 ± 0.24 and the “self-splicing fitness (ln)” value (37 °C) was -3.15 ± 0.23.
For AUCUAGCAAUAUUACGGUAA, the “self-splicing fitness (ln)” value (30 °C) was -0.976 ± 0.12 and the “self-splicing fitness (ln)” value (37 °C) was -0.736 ± 0.14.
In the case of AUAUAGCAAUAUUACGAACU, the “self-splicing fitness (ln)” value (30 °C) is reported as -1.38 ± 0.22 and the “self-splicing fitness (ln)” value (37 °C) is reported as 0.111 ± 0.21.
In the case of UUGGAGCAAUAUUACGUGGG, the “self-splicing fitness (ln)” value (30 °C) is reported as -2.17 ± 0.33.
For GGCGAGCAAUAUUACGCAAG, the “self-splicing fitness (ln)” value (30 °C) was -2.96 ± 0.34 and the “self-splicing fitness (ln)” value (37 °C) was -2.3 ± 0.24.
In the case of CAAUAGCAAUAUUACGGUAC, the “self-splicing fitness (ln)” value (30 °C) is reported as -3.25 ± 0.19 and the “self-splicing fitness (ln)” value (37 °C) is reported as -2.08 ± 0.18.
With CAUUAGCAAUAUUACGCGUC the “self-splicing fitness (ln)” value (30 °C) was -2.64 ± 0.29 and the “self-splicing fitness (ln)” value (37 °C) was -2.01 ± 0.26.
For CCAAAGCAAUAUUACGGCGU, the “self-splicing fitness (ln)” value (30 °C) was -3.49 ± 0.12 and the “self-splicing fitness (ln)” value (37 °C) was -2.62 ± 0.14.
